Measurements: patent US20250011410A1 (INVETX, published 2025)

T1: NT-3 (R&D Systems, 267-N3-025/CF) (UniProt P20783 139-257)
T1 sequence (looked up): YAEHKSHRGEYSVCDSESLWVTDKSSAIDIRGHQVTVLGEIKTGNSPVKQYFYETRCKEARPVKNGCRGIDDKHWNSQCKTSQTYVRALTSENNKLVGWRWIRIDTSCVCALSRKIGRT

T2: BDNF (R&D Systems, 248-BDB-050/CF) (UniProt P23560 129-247)
T2 sequence (looked up): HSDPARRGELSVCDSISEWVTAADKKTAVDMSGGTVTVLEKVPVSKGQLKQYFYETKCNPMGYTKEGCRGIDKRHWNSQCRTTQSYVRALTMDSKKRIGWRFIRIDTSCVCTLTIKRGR

B1: rat antibody 2166 (antibody, V domains shown)
VH: QVQLKESGPGLVQPSQTLSLTCTVSGLSLTSNSVSWIRQPPGKGLEWMGVIWSNGGTDYNSAIESRLSINRDTSKSQVFLKMNSLQPEDTAMYFCASIYYYDADYLHWYFDFWGPGTMVTVSS
VL: DIQMTQSPASLSASLGETVSIECLASEGISNSLAWYQLKPGKSPQFLIYATSSLQDGVPSRFSGSGSGTQYSLKISGMQPEDEGVYYCQQGYKFPLTFGSGTKLKIK
B2: canine 2166 chimeric antibody (antibody, V domains shown)
VH: QVQLKESGPGLVQPSQTLSLTCTVSGLSLTSNSVSWIRQPPGKGLEWMGVIWSNGGTDYNSAIESRLSINRDTSKSQVFLKMNSLQPEDTAMYFCASIYYYDADYLHWYFDFWGPGTMVTVSS
VL: DIQMTQSPASLSASLGETVSIECLASEGISNSLAWYQLKPGKSPQFLIYATSSLQDGVPSRFSGSGSGTQYSLKISGMQPEDEGVYYCQQGYKFPLTFGSGTKLKIKR

Legend:
[1] = target: T1, NT-3 (R&D Systems, 267-N3-025/CF); test: multiplexed bead assay, flow cytometry
[2] = target: T3, human NGF (R&D Systems, 256-GF-100/CF) (human, UniProt P01138 122-241); test: multiplexed bead assay, flow cytometry
T3 construct: Conjugated to beads or fluorescently labelled; also called human NGF antigen

[3] = target: T2, BDNF (R&D Systems, 248-BDB-050/CF); test: multiplexed bead assay, flow cytometry
[4] = target: T4, canine NGF tagged at the C-terminus with the Flag tag (canine, UniProt A0A8I3PYI3 122-241); test: SPR, antibody amine-coupled, NGF analyte
T4 construct: Baculovirus expression; also called feline NGF (processed form identical)

[5] = target: canine NGF with a strep-tag at the C-terminus (canine, UniProt A0A8I3PYI3 122-241); test: cell-based or functional assay
[6] = target: T4, canine NGF tagged at the C-terminus …; test: SPR; antibody amine-coupled to HC30M sensor chip, canine NGF-Flag as analyte
canine TrkA-Fc = target: T5, canine TrkA-Fc (canine; human, UniProt A0A8I3P078 33-423); test: SPR, receptor-Fc captured on anti-human Fc chip
T5 construct: extracellular domain; also called Trk-Fc; canine TrkA in a dimer format; not shown: human IgG1 Fc, UniProtKB P01857

[7] = target: T4, canine NGF tagged at the C-terminus …; test: SPR Biacore T200, antibody captured on protein A, NGF analyte; fitted KD, one-to-one model
[8] = target: T4, canine NGF tagged at the C-terminus …; test: SPR Biacore T200, antibody captured on protein A, NGF analyte

T5 sequence (A0A8I3P078 entry or part of it): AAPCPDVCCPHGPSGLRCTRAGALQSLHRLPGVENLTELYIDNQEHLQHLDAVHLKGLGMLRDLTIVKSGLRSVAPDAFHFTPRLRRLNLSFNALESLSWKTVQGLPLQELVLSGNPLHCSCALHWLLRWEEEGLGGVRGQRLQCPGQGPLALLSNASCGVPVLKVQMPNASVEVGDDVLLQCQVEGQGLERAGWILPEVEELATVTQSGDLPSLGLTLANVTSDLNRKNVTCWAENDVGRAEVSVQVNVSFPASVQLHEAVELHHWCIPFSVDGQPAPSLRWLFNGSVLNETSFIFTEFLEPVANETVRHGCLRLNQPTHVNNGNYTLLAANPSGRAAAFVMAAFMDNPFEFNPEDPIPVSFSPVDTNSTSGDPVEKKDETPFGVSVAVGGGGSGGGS
T3 sequence (P01138 122-241 limits assumed): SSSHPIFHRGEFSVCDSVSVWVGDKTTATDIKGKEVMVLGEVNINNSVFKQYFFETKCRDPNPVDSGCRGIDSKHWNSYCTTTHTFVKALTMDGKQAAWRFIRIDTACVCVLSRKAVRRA

| Binder | binding result [1] | fold over background (MFI normalized over isotype control) [2] [fold] | binding result [3] | Kd [4] [nM] | koff [4] [s⁻¹] | kon [4] [M⁻¹ s⁻¹] | IC50 (read off the curve): % inhibition of canine NGF-driven TF-1 cell proliferation [5] [nM] | Kd [6] [nM] | binding result (canine TrkA-Fc) | Kd [7] [nM] | koff [8] [s⁻¹] | kon [8] [M⁻¹ s⁻¹] |
| --- | --- | --- | --- | --- | --- | --- | --- | --- | --- | --- | --- | --- |
| B1 | no binding | > 59 | no binding | ≤ 0.0042 | ≤ 1e-05 | 2.38e+06 | ~0.03 | 0.042 |  |  |  |  |
| B2 |  |  |  |  |  |  |  |  | no binding (tested: 12.5 nM to 100 nM) | ≤ 0.05 | < 1e-05 | 1.2e+07 |
